Experimental data: article PMC11603163

Target: CLSY3-3xF-BLRP (Arabidopsis) (UniProt F4I8S3)
Assay: co-IP; streptavidin beads (M-280 Dynabeads) capture CLSY3-3xF-BLRP from flower extracts of F1 plants crossed to NRPD1-3xF WT or CYC-AAAA; anti-FLAG western blot; dilution series of the WT co-IP

UniProt F4I8S3, sequence (F4I8S3 whole entry): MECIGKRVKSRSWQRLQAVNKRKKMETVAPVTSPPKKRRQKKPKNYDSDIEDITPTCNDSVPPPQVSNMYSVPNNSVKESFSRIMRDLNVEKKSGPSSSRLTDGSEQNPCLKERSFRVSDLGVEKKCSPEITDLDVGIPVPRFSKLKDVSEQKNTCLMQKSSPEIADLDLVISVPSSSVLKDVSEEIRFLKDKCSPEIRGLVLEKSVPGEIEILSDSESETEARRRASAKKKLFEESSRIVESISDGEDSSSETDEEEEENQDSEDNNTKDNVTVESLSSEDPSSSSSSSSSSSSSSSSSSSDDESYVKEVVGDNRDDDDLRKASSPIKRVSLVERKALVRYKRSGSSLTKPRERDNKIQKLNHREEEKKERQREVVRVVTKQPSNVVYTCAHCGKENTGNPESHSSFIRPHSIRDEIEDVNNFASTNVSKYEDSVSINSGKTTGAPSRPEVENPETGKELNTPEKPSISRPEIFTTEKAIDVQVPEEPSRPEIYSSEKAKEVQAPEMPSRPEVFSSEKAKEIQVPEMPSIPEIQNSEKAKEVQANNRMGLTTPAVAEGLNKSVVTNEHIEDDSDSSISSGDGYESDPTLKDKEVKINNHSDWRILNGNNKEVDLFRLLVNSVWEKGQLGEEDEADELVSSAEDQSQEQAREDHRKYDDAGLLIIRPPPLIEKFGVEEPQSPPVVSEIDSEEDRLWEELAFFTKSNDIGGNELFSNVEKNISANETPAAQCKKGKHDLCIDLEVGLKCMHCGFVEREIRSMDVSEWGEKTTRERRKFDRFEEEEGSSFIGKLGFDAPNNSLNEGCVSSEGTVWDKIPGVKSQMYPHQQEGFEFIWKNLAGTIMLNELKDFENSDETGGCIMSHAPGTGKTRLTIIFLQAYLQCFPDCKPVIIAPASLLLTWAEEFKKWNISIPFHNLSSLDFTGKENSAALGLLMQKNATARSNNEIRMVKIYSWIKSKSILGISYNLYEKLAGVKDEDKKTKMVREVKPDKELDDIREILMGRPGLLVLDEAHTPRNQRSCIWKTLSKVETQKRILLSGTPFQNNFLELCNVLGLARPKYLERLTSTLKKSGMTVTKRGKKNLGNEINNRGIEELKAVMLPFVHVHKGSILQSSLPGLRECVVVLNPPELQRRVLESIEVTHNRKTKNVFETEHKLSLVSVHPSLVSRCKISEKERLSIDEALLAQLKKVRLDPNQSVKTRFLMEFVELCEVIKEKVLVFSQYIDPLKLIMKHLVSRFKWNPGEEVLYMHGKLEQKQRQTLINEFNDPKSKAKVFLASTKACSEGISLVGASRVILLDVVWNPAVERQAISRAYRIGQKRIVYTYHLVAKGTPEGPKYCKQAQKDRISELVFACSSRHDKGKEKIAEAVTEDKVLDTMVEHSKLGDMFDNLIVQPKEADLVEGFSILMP

NRPD1-3xF_(CYC-AAAA) (from UniProt Q9LQ02 1-1453) (natural protein)
fold reduction of the co-IP against NRPD1-3xFWT: > 8 fold
